Patent US20230227838A1, “ENHANCED CELL SURVIVAL AGAINST BIOTIC AND ABIOTIC STRESSES THROUGH SALICYLICK ACID-INDUCED NPR1 CONDENSATES” (priority 2020, published 2023)

Key:
PR1 promoter = PR1 promoter activity, dual luciferase assay; format: cell-based, Nicotiana benthamiana; settings: 2 mM SA for 24 hr
Text: PR1 promoter activity and dual luciferase assay. For promoter transactivation assays, the PR1 promoter reporter (pPR1:DUAL-LUC) was transiently co-expressed in N. benthamiana together with free HA, or HA-fused WT NPR1 or npr1 mutants (effectors) followed by treatment with SA at 1 dpi. At 2 dpi (24 hr after SA treatment), leaf discs were collected, ground in liquid nitrogen, and lysed with the PLB buffer of the Dual-Luciferase Reporter Assay System (Promega, E1910). Lysate was spun down at 12,000 g for 1 min, and 10 μl was taken for measuring FLUC and RLUC activities according to manufacturer's instructions using a Victor3 plate reader (PerkinElmer). At 25° C., substrates for FLUC and RLUC were added using the automatic injector and after 3 s shaking and 3 s delay, the signals were captured for 3 s and recorded as counts per second. To obtain the PR1 promoter activity, the ratio of F-LUC and R-LUC activities was calculated for each effector and plotted relative to that of free HA.

[1] = system: cytoplasmic condensates (SINCs); assay: Confocal imaging of localization and condensate (body) formation of GFP-fused NPR proteins and variants; format: cell-based, Nicotiana benthamiana
Protocol: (§1) Plant transformation: For plant transformations, the Agrobacterium tumefaciens strain GV3101 was transformed with plant binary vectors carrying the indicated transgenes. For stable expression in Arabidopsis, a floral dipping method was used. For transient expression in N benthamiana, the Agrobacterium carrying the indicated construct was cultured overnight at 28° C. in Luria-Bertani (LB) broth medium supplemented with appropriate antibiotics: spectinomycin (100 μg/ml), kanamycin (50 μg/ml), gentamycin (50 μg/ml), and rifampicin (25 μg/ml). The obtained culture was re-inoculated at 1:10 into fresh growth media with antibiotics and grown for another 4 hr. Cells were then spun down at 1,600 g for 10 min, and inoculum was prepared by resuspending cells to OD600 nm=1 in double distilled water (DDW) containing 200 μM acetosyringone (Sigma). Unless otherwise stated, for co-IP, co-localization, and BiFC assays in N. benthamiana, the proteins were co-expressed at 1:1 mixture of the relevant Agrobacteria inoculums. In all BiFC assays, the pair of YN/YC fusions was co-expressed together with free mCherry to mark the cytoplasm and nucleus, mCherry-NLS to mark the nucleus only, or mCherry-fused test proteins for co-localization analysis. The inoculum was pressure infiltrated into N. benthamiana leaves at the abaxial side using 1 ml syringe without the needle. Due to low overall levels of NPR1-GFP in transgenic plants, a transient expression assay in Arabidopsis seedlings was used to monitor NPR1-GFP subcellular localization after SA treatment (FIG. 2B). To limit the imaging time in this transient assay (2 hours), a higher baseline SA concentration had to be used. Seeds of WT (Col-0) Arabidopsis were germinated on solid half-strength Murashige and Skoog (1/2 MS) medium and grown for 4 days. Agrobacterium carrying the indicated constructs was grown overnight in LB medium supplemented with appropriate antibiotics. The obtained culture was re-inoculated at 1:10 into virulence induction medium [50.78 mM MES, 0.5% Glucose, 1.734 mM NaH2PO4, 5% of 20X-AB mix (373.9 mM NH4C1, 24.34 mM MgSO4, 40.23 mM KCl, 1.36 mM CaCl2 and 0.18 mM FeSO4·7H2O), 200 μM acetosyringone] supplemented with 25 μg/ml rifampicin and grown for another 24 hr at 28° C. to OD600=0.8 (inoculum). Seedlings were vacuum-infiltrated with the inoculum, and at 48 hpi (hours post inoculation), treatments were performed by submerging the transformed seedlings in water or SA solution at indicated concentrations for 2 hr. Entire cotyledons were sampled for microscopy.
Confocal laser scanning microscopy. Unless otherwise indicated, all imaging data and micrographs for single protein imaging, co-localizations, BiFC and time-lapse were obtained from the transient expression in N. benthamiana using the relevant Agrobacteria strains. All imaging was done with confocal laser scanning fluorescence microscopy using Zeiss 880 airyscan inverted confocal microscope with a 40×/1.2 water correction objective. GFP (eGFP) was excited with a 488 nm argon laser and emission was collected with a 505-530 nm band pass filter. YFP was excited with an argon laser using a 514 nm beam splitter, and emission was detected with a 520-555 nm band pass filter. mCherry was excited with a 561 nm diode laser, and emission was detected with a 575-615 nm band pass filter. When eGFP/YFP were imaged together with mCherry, a spectral GASP detector was used to collect emission from eGFP/YFP. Propidium iodide (PI) was excited with 488 nm argon laser and emission was detected with a 590-620 nm band pass filter. Time-lapse imaging was carried out on live leaf tissue samples from N. benthamiana plants transiently expressing the protein of interest. Image acquisition was done in 5 min intervals for the duration of 2 hr by scanning 30 consecutive focal planes along the Z-axis covering the entire thickness of an epidermal cell. Z-projection was done to each time frame stack before composing a final time-lapse file. […]

[2] = system: Psm ES4326/AvrRpt2-mediated cell death; assay: Cell death (conductivity/electrolyte leakage, trypan blue) after Psm ES4326/AvrRpt2 inoculation; format: in vivo, Arabidopsis thaliana; settings: transgenic plants expressing the mutant in npr1-2 background; 1 mM SA 24 hr before inoculation
Protocol: Chemical treatment, pathogen infection and cell death assays. […] At 2 days, the bacterial colonies were scored.
Trypan blue staining. Leaves of three-week-old Arabidopsis infected with Psm ES4326/AvrRpt2 were sampled at 1 dpi, boiled in 95% ethanol until completely bleached, followed by boiling for 3 min in a 1:1 mixture of 95% ethanol and staining solution (10 ml lactic acid, 10 ml glycerol, 10 g phenol and 10 mg trypan blue, dissolved in 10 ml DDW). The leaves were then de-stained in 2.5 g/ml chloral hydrate solution and transferred to 70% glycerol for subsequent imaging.

CUL3 = assay: Co-IP of Myc-CUL3 with HA-fused NPR1 or variants; format: binding, Arabidopsis thaliana; settings: 1 mM SA for 5 hr
Protocol: as §1
Protein analysis and IP. Recombinant protein analysis was performed using transient expression in N. benthamiana, or stable over-expression in transgenic Arabidopsis, or expression in E. coli. Total protein extraction from plants was performed by homogenizing leaf tissue in the plant extraction buffer [50 mM Tris-HCl (pH 7.5), 150 mM NaCl, 5 mM EDTA, 0.2% Triton X-100, 0.2% Nonidet P-40] supplemented with 1 mM PMSF, 100 μM MG132, and EDTA-free protease inhibitor cocktail (Roche). For ubiquitinated protein analysis in plants, 100 μM of DUB (deubiquitinase) inhibitor (LifeSensors) and 10 mM NEM were added. Next, the lysates were cleared by centrifugation at 14,000 rpm for 15 min followed by filtering through a 0.2 μm filter. […] Pull-downs or IP experiments were done on total protein extracts by incubating protein samples in the lysis buffer overnight with indicated affinity tag or antibody conjugated to agarose or magnetic beads: GFP-trap agarose beads (Chromotek) for GFP fusions; RFP-trap agarose beads (Chromotek) for mCherry fusions; anti-HA magnetic beads (ThermoFisher) for HA tag fusions; anti-DYKDDDDK coupled magnetic agarose (ThermoFisher) for FLAG tag fusions; and glutathione magnetic agarose (ThermoFisher) for GST fusions. Unless otherwise indicated, after pull-down/IP, beads were washed 3 times and proteins were eluted by boiling in the 2×SDS sample buffer. […]

B1: rdr3: NPR1 with cysteine cluster of RDR3 mutated (C511/521/529A) (protein)
chain: MDTTIDGFADSYEISSTSFVATDNTDSSIVYLAAEQVLTGPDVSALQLLSNSFESVFDSPDDFYSDAKLVLSDGREVSFHRCVLSARSSFFKSALAAAKKEKDSNNTAAVKLELKEIAKDYEVGFDSVVTVLAYVYSSRVRPPPKGVSECADENCCHVACRPAVDFMLEVLYLAFIFKIPELITLYQRHLLDVVDKVVIEDTLVILKLANICGKACMKLLDRCKEIIVKSNVDMVSLEKSLPEELVKEIIDRRKELGLEVPKVKKHVSNVHKALDSDDIELVKLLLKEDHTNLDDACALHFAVAYCNVKTATDLLKLDLADVNHRNPRGYTVLHVAAMRKEPQLILSLLEKGASASEATLEGRTALMIAKQATMAVECNNIPEQCKHSLKGRLCVEILEQEDKREQIPRDVPPSFAVAADELKMTLLDLENRVALAQRLFPTEAQAAMEIAEMKGTCEFIVTSLEPDRLTGTKRTSPGVKIAPFRILEEHQSRLKALSKTVELGKRFFPRASAVLDQIMNAEDLTQLAAGEDDTAEKRLQKKQRYMEIQETLKKAFSEDNLELGNSSLTDSTSSTSKSTGGKRSNRKLSHRRR
modifications: A. thaliana npr1 rdr3 protein
transcriptional co-activation function (PR1 promoter transactivation) (PR1 promoter): reduced transcriptional co-activation function | SA-induced cytoplasmic body/condensate (SINC) formation ([1]; 5 mM SA for 2 hr): completely abolished the SA-induced condensation in both cytoplasm and nucleus | nuclear accumulation (nuclear-cytoplasmic partitioning) ([1]; absence of SA, compared to WT): increased nuclear accumulation | condensate formation in the absence of SA (constitutive) ([1]; no SA treatment / mock): no effect on protein state in untreated cells | protection against cell death induced by Psm ES4326/AvrRpt2 (SA-mediated survival phenotype) [2]: partially compromised the protection against cell death | CUL3 pull-down signal in co-IP (CUL3): little interaction
